One data set has as its system normal human macrophage. The data set is described as follows: Binding of tritiated hexapeptides to normal PB monocyte/macrophages. The following applies: for CPM bound: +Glucose, NaN3, Captopril, Benzylsuccinate, Elastatinal. The source says:
(§1) Using the method described by M'Hamiel Jaziri et al (1992) the human macrophage binding of the bovine peptides Pro-63 to Asn-68 (from the β-casein A1 and A2 variant sequences) were studied and compared with the binding of the peptide Val-54 Tyr-59 from human β-peptide to each of a normal human macrophage and a prediabetic human macrophage.

Data set [1] concerns prediabetic human macrophage. The data set is described as follows: Binding of tritiated hexapeptides to prediabetic PB monocyte/macrophages. Conditions: for CPM bound: +Glucose, NaN3, Captopril, Benzylsuccinate, Elastatinal.
Source text: as §1

In the next data set the test system is murine macrophages. The following applies: cited from earlier work.
Data set [2] concerns the target binding site on normal human PB monocyte/macrophages (human). The experiment in a line: binding of tritiated hexapeptide to PB monocyte/macrophages.
In data set [3] the target is binding site on prediabetic human PB monocyte/macrophages (human). The data set is described as above.
Data set [4] concerns the target binding site on normal human PB monocyte/macrophages (human). The data set is described as follows: binding of tritiated hexapeptide to PB monocyte/macrophages; reference bovine A1 peptide.
In data set [5] the target is binding site on prediabetic human PB monocyte/macrophages (human). The description is as above.
In a further data set the test system is human macrophage. Conditions: cited from earlier work.
Another data set has as its system NOD mice. The data set is described as follows: Diabetes incidence in NOD mice fed β-casein A1/A2 variants, whey or Bos indicus casein as 10% additions to Prosobee. The following applies: for Number of Animals Developing Diabetes by 250 days / Percentage of animals developing diabetes by 250 days: 10% addition to Prosobee infant formula from weaning. Type of data set: in vivo, mouse. The source says: Similar groups of mice were fed a diet of the soy infant formula Prosobee™ and 10% W/W of: […]
d) Bos indicus casein, or
e) a 50/50 mixture of β-casein A1 variant/A2 variant.
The β-casein A1 variant precipitated diabetes in […] cases, the A2 variants in no cases and the A1/A2 mixture in 4 of 20 cases. The result mid-way between the […] results is consistent with there being no interaction between A1 and A2.
Lactic casein was manufactured in the New Zealand Dairy Research Institute Pilot Plant from the β-casein A1A1 and A2A2 phenotype bulk milks using methods essentially identical to those used in a standard New Zealand commercial lactic casein manufacturing dairy factory (see Muller, 1986). These caseins together with other constituents were then used in the feeding trials as described in Examples 2 and 3.

Numbering of substitutions follows the chain as printed. Like-named read-outs stand apart in the source and are kept apart here. Marks after values point to notes of the source that are not given here. Ends that are not written are not given here.

The values that follow come from US7157616B2, “Method of selecting non-diabetogenic milk or milk products and milk or milk products so selected” (priority 1994, dated 2007).

“Pro-Gly-Pro-Ile-His-Asn (PGPIHN; also: tritium label) [Bovine A1]”: the figures for the CPM bound (in the data set with normal human macrophage (NORMAL PBM (N = 3)); in [1] (PREDIABETIC PBM (N = 3))) were 2220** CPM and 4500** CPM, respectively. Moreover, the “binding to normal human macrophages” value in the data set with normal human macrophage was “bind specifically”. Besides, in data set [1], the “binding to prediabetic macrophages” value is “bind specifically”. Also, in the data set on murine macrophages, the “phagocytic activity of murine macrophages” value was “stimulate the phagocytic activity”.

With “peptide Val-54 to Tyr-59 from human β-casein (from UniProt P05814 69-74)”, the CPM in [2] stood at 2750 CPM; in data set [3], 1400 CPM. Also, the Ratio */** (human CPM to bovine A1 CPM) in [4] amounted to 1.2; in data set [5], 0.31.

For the molecule “Human: tritiated hexapeptide Val-54 to Tyr-59 from human β-casein (VEPIPY; also: tritiated) [reference compound]”, in the data set with normal human macrophage (NORMAL PBM (N = 3)), the “Ratio */** (Human / Bovine A1 CPM)” value stood at 1.2 and the CPM bound is given as 2750* CPM. The “binding to normal human macrophages” value in the data set on normal human macrophage was “bind specifically”. Besides, in data set [1] (PREDIABETIC PBM (N = 3)), the “Ratio */** (Human / Bovine A1 CPM)” value is listed as 0.31 and the CPM bound is 1400* CPM. For the same molecule, in [1], the “binding to prediabetic macrophages” value is “bind specifically”. Moreover, in the data set with human macrophage, the “binding site on the human macrophage” value was “specific binding site”.

Turning to “Bovine A2: tritiated bovine hexapeptide Pro-63 to Asn-68 from the β-casein A2 variant sequence (proline at position 67) (PGPIPN; also: tritiated)”, the CPM bound in the data set on normal human macrophage (NORMAL PBM (N = 3)) is recorded as 2900 CPM; in data set [1] (PREDIABETIC PBM (N = 3)), 2750 CPM.

B1: β-casein A1 variant: bovine β-casein A1 variant (SEQ ID NO: 2); casein made from milk of β-casein A1A1 phenotype cows (protein)
chain: RELEELNVPGEIVESLSSSEESITRIDKKIEKFQSEEQQQTEDELQDKIHPFAQTQSLVYPFPGPIHNSLPQNIPPLTQTPVVVPPFLQPEVMGVSKVKEAMAPKHKEMPFPKYPVQPFTESQSLTLTDVENLHLPPLLLQSWMHQPHQPLPPTVMFPPQSVLSLSQSKVLPVPEKAVPYPQRDMPIQAFLLYQQPVLGPVRGPFPIIV
As for B1, in the data set on NOD mice, the “diabetogenic activity (words)” value was “diabetogenic”, the “Number of Animals Developing Diabetes by 250 days” value (from here on “Number”) was determined as 9 and the “Percentage of animals developing diabetes by 250 days” value came out at 45%. Moreover, the “diabetogenic activity (words)” value in the data set on NOD mice (listed as A1 variant) is on record as “does have diabetogenic activity”.

B2: β-casein A2 variant: bovine β-casein A2 variant; casein made from milk of β-casein A2A2 phenotype cows (protein)
chain: B1 chain with H67P
B2: in the data set on NOD mice, the “diabetogenic activity (words)” value was “is not”, the “Number” value is 0 and the “Percentage of animals developing diabetes by 250 days” value is on record as 0%. The “Number” value in the data set on NOD mice (listed as A2 variants) is listed as “no cases”. Also, the “diabetogenic activity (words)” value with NOD mice (listed as A2 variant) is recorded as “do not show diabetogenic activity”.

Turning to PGPIPN (also: tritiated) [bovine β-casein A2 hexapeptide Pro-63 to Asn-68], the CPM in data set [2] was found to be 2900 CPM; in data set [3], 2750 CPM.

As to PGPIHN (also: tritiated) [bovine β-casein A1 hexapeptide Pro-63 to Asn-68 (Pro-Gly-Pro-Ile-His-Asn)], the CPM in data set [2] was determined as 2220 CPM; in data set [3], 4500 CPM.
